Literature values as cited in PMC2846785.

System: Cys

For “Arylamine N-acetyltransferase 2 (hamster NAT2) (Mesocricetus auratus (Syrian hamster))”, the pKa is given as 5.23 ± 0.03.
